# Test results reported in publication PMC9405769, “The Crystal Structure of the Defense Conferring Rice Protein OsJAC1 Reveals a Carbohydrate Binding Site on the Dirigent-like Domain” (Biomolecules, 2022).
# B1: OsJAC1-DIR domain (His-tag cleaved by thrombin) (domain or fragment, rice (Oryza sativa))
# chain: SKLQITPCGMLVQGNQINFTKLYLHHTPAGPEQNQSAVTSNDKKTGLGCIVVNNWSVYDGIGSDAKLVAYAKGLHVFAGAWHNSFSLVFEDERLKGSTLQVMGLIVEEGDWAIVGGTGQFAMATGVILKKMQEQKQYGNIIELTIHGFCPLLKGS
# notes: DIR (dirigent) domain, the N-terminal domain of the monocot chimeric jacalin OsJAC1, rice (Oryza sativa); traced residues include Lys6 (chain B), and the C-terminus of the model of chain A (cf1) is at Leu155; also called DIR-cf1; DIR-cf2; source: prepared as previously described in Huwa et al. (2021) [25]; His-tag removed with thrombin, no further purification
# B2: OsJAC1-JRL domain (His-tagged, crystal form 1) (domain or fragment, rice (Oryza sativa))
# chain: QCPVTKIGPWGSSHEGTVQDITESPKRLESITLYHGWSVDSISFTYLDHAGEKHKAGPWGGPGGDPIMIEFGSSEFLKEVSGTFGPYEGSTVITSINFITNKQTYGPFGRQEGTPFSVPAQNNSSIVGFFGRSGKYINAVGVYVQPI
# modifications: symmetric inter-subunit disulfide bond at Cys161 (Cys161-Cys161)
# notes: JRL (jacalin-related lectin) domain of the monocot chimeric jacalin OsJAC1, rice (Oryza sativa); the model's termini are Gln160 and Pro305 of full-length OsJAC1 (residue range 160-306 used for superposition); also called JRL-cf1; OsJAC1-JRL (cf1); source: prepared as previously described in Huwa et al. (2021) [25]
# B3: OsJAC1-JRL domain (Strep-tagged, crystal form 2) (domain or fragment, rice (Oryza sativa))
# chain: B2 chain
# modifications: symmetric inter-subunit disulfide bond at Cys161 (Cys161-Cys161)
# notes: JRL (jacalin-related lectin) domain of the monocot chimeric jacalin OsJAC1, rice (Oryza sativa); residue range 160-306 of full-length OsJAC1 used for superposition; also called JRL-cf2; OsJAC1-JRL (cf2); source: prepared as previously described in Huwa et al. (2021) [25]
# What was measured:
# [1] = target: the molecule itself; test: crystal structure; DIR-cf1: protein in 15 mM Tris-HCl pH 7.4, 1 mM DTT, 6.25 mg/mL; reservoir 0.2 M CaCl2, 20% (w/v) PEG 3350; sitting drop, 20 °C; space group P212121; three chains per asymmetric unit
# [2] = target: the molecule itself; test: crystal structure; JRL-cf1: protein in 25 mM sodium phosphate pH 7.0, 10 mg/mL; reservoir 0.05 M MES pH 6.0, 28% (w/v) PEG 3350; sitting drop, 20 °C; non-reducing; space group P212121; two chains per asymmetric unit
# [3] = target: the molecule itself; test: crystal structure; JRL-cf2: protein in 25 mM sodium phosphate pH 7.0, 11 mg/mL; reservoir 0.2 M NH4I, 20% (w/v) PEG 3350; sitting drop, 20 °C; space group C2221; two chains per asymmetric unit
protein,measurement,setting,value
B1,stoichiometry N,[1],3
B2,stoichiometry N,[2],2
B3,stoichiometry N,[3],2
